How the values were obtained:
Settings in all cases: label: biotin
[1] = target: T1, NKG2A (UniProt P26715 P26715:94-233); experiment: ELONA; direct and competitive ELISA; 100-fold excess unlabelled aptamer as competitor
Procedure: FIGS. 2A and 2B show aptamer, R2-13, specific binding to CTLA4 and NKG2A is determined by Direct and Competitive ELISA assay. ELISA-based competition assay for the binding of the CTLA4 aptamer, R2-13, to CTLA4 protein and to NKG2A protein. CTLA4 protein and NKG2A protein were immobilized on a MaxiSorp plate and biotinylated R2-13 on different concentrations were added in the absence and presence of 100-fold excess of non-biotinylated respective R2-13. The bound aptamer was detected using Streptavidin-HRP and assessed by ELISA. CTLA4 protein was immobilized on a MaxiSorp plate and biotinylated R2-13 on different concentrations were added in the absence and presence of 100-fold excess of non-biotinylated respective R2-13. The bound aptamer was assessed by ELISA.

[2] = target: Bovine serum albumin (BSA) (Bos taurus, UniProt P02769 P02769:25-607); experiment: ELONA; BSA-coated plate
Sequence of Bovine serum albumin (BSA) (P02769 25-607, one chain of several): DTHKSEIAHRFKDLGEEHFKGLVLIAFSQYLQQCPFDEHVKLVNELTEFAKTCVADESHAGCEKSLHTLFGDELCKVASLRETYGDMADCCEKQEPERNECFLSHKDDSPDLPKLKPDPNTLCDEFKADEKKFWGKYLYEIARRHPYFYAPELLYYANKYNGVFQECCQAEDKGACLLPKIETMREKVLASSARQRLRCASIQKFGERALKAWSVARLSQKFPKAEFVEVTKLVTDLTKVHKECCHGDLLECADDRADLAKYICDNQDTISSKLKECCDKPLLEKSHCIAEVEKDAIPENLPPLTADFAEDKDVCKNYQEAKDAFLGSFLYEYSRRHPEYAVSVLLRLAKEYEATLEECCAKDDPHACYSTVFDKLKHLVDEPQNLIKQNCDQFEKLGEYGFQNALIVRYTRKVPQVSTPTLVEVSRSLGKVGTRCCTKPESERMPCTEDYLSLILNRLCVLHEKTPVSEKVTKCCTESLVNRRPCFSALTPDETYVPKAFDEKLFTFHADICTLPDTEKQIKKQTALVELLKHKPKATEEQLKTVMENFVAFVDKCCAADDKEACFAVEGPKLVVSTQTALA

[3] = target: T2, CTLA4 (cytotoxic T-lymphocyte associated protein 4) (UniProt P16410 P16410:36-161); experiment: ELONA; direct and competitive ELISA; 100-fold excess unlabelled aptamer as competitor
T2 sequence (P16410 36-161, one chain of several): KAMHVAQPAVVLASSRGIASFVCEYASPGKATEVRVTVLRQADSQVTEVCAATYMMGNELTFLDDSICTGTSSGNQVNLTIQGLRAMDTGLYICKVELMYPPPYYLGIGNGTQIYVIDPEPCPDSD

[4] = target: T3, PD-1 (UniProt Q15116 Q15116:25-170); experiment: competition; PD-1 as soluble competitor for aptamer binding to immobilised CTLA4
T3 sequence (Q15116 25-170, one chain of several): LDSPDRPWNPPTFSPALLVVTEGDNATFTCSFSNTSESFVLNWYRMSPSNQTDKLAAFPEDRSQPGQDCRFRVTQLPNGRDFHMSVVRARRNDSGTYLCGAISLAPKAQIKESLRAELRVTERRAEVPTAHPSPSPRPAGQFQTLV
Procedure: (§1) FIGS. 3A, 3B, and 3C show the assessment of competitive specificity of CTLA4 aptamers, R2-13, R2-25, R2-63, R2-81, R3-20, and R3-56 to CTLA4 protein in presence of CTLA4, NKG2A, and PD-1 proteins. ELISA-based competition assay for the specificity of the binding of CTLA4 aptamers, R2-13, R2-25, R2-63, R2-81, R3-20, and R3-56. CTLA4 protein (5.0 ug/mL) was immobilized on a MaxiSorp plate. Biotinylated CTLA4 aptamers on 5.0 uM concentration were added in the presence of different concentrations of CTLA4, PD-1, or NKG2A proteins, respectively. The bound aptamer was detected using Streptavidin-HRP and assessed by ELISA. The absorbance of each well was monitored at 450 nm on an automatic microplate reader. The percent inhibition was calculated using the formula, Percent inhibition=[1−(Ainhibitor/Auninhibitor)]×100.

[5] = target: T3, PD-1; experiment: competition; PD-1 as soluble competitor
Procedure: as §1

[6] = target: T2, CTLA4 (cytotoxic T-lymphocyte …); experiment: ELONA; 5.0 uM biotinylated aptamer on immobilised CTLA4 (5.0 ug/mL), competed with soluble protein
Procedure: as §1

[7] = target: T1, NKG2A; experiment: competition; NKG2A as soluble competitor for aptamer binding to immobilised CTLA4
Procedure: as §1

[8] = target: T2, CTLA4 (cytotoxic T-lymphocyte …); experiment: ELONA; called R2-25 in figure legend; 5.0 uM biotinylated aptamer on immobilised CTLA4, competed with soluble protein
Procedure: as §1

[9] = target: T3, PD-1; experiment: competition; PD-1 as soluble competitor; called R2-25 in figure legend
Procedure: as §1

T1 sequence (P26715 94-233, one chain of several): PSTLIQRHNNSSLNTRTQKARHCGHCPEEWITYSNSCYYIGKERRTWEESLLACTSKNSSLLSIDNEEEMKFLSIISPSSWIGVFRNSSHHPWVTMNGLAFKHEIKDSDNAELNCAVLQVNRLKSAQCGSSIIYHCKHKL

Binder	binding result [1]	binding result [2]	binding result [3]	binding result [4]	binding result [5]	binding result [6]	binding result [7]	binding result [8]	binding result [9]
ACACTTTTCCCCCACCTGATCCTCAGTTCCGGAAAAGTGT (ssDNA, deoxyuridine (dU) in place of every T) [ctla4_R2_13]	binds	no binding	binds	no binding					
TTGTTGCAGGCGACGTGCGTGGGCGCACGGCCTGCAACAA (ssDNA, deoxyuridine (dU) in place of every T) [ctla4_R3_56]					no binding	binds	binds		
ACTTACAACTGCGCACGCGGGACCTCCGAGAGTTGTAAGT (ssDNA, deoxyuridine (dU) in place of every T) [ctla4_R2_81]					no binding	binds	binds		
GACCTGCCGGCGGAGCTGCGTCCCGCTGCACCGGCAGGTC (ssDNA, deoxyuridine (dU) in place of every T) [ctla4_R3_20]					no binding	binds	binds		
GACTTCGCGGAGGTAAACTGCACGGGGGTGCCGCGAAGTC (ssDNA, deoxyuridine (dU) in place of every T) [ctla4_R3_25]							binds	binds	no binding
